Laboratory results published in US20210269519A1 (University of Texas, published 2021).

T1: FLAG-tagged β-catenin
T1 chain: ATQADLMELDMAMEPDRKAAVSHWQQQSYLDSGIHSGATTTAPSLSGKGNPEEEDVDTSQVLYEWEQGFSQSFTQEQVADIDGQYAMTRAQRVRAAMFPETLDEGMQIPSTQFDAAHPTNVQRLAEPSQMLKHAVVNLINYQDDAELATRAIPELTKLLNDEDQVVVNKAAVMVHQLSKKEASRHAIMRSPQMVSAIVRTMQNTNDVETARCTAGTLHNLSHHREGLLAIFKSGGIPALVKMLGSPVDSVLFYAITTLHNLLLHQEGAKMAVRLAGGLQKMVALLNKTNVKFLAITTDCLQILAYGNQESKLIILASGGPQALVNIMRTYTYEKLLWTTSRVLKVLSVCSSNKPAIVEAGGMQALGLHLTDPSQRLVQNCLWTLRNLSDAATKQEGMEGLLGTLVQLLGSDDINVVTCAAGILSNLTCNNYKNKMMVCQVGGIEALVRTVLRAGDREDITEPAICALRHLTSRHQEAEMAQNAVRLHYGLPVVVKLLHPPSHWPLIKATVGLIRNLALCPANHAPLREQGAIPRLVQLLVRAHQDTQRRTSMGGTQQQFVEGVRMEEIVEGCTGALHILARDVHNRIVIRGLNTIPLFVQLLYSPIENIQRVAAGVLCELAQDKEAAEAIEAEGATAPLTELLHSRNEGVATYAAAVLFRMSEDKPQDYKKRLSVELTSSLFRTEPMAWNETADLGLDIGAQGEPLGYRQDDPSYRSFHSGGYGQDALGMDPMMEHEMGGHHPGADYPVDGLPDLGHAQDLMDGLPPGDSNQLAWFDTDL

T2: Flag tagged-human Lmbr1l (limb region 1 like, LMBR1L) (human, UniProt Q6UX01 1-489)
T2 construct: It carries a Flag tag; also called h-LMBR1L; LIMR
T2 sequence: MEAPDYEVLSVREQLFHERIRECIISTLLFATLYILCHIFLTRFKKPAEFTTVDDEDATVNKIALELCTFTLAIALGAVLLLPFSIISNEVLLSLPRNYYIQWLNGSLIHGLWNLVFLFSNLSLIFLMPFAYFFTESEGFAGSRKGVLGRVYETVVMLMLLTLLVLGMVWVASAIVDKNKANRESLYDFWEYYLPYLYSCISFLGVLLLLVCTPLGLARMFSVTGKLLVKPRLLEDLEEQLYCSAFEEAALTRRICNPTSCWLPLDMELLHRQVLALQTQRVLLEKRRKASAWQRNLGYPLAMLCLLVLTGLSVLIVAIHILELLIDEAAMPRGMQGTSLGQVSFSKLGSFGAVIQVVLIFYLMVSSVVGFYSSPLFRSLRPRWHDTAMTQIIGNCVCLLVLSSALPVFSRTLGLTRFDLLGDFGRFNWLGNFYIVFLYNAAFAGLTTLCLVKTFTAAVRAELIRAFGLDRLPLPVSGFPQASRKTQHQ

B1: glycoprotein 78 (GP78; known as AMFR) (enzyme, UniProt Q9UKV5 1-643, looked up)
chain: MPLLFLERFPWPSLRTYTGLSGLALLGTIISAYRALSQPEAGPGEPDQLTASLQPEPPAPARPSAGGPRARDVAQYLLSDSLFVWVLVNTACCVLMLVAKLIQCIVFGPLRVSERQHLKDKFWNFIFYKFIFIFGVLNVQTVEEVVMWCLWFAGLVFLHLMVQLCKDRFEYLSFSPTTPMSSHGRVLSLLVAMLLSCCGLAAVCSITGYTHGMHTLAFMAAESLLVTVRTAHVILRYVIHLWDLNHEGTWEGKGTYVYYTDFVMELTLLSLDLMHHIHMLLFGNIWLSMASLVIFMQLRYLFHEVQRRIRRHKNYLRVVGNMEARFAVATPEELAVNNDDCAICWDSMQAARKLPCGHLFHNSCLRSWLEQDTSCPTCRMSLNIADNNRVREEHQGENLDENLVPVAAAEGRPRLNQHNHFFHFDGSRIASWLPSFSVEVMHTTNILGITQASNSQLNAMAHQIQEMFPQVPYHLVLQDLQLTRSVEITTDNILEGRIQVPFPTQRSDSIRPALNSPVERPSSDQEEGETSAQTERVPLDLSPRLEETLDFGEVEVEPSEVEDFEARGSRFSKSADERQRMLVQRKDELLQQARKRFLNKSSEDDAASESFLPSEGASSDPVTLRRRMLAAAAERRLQKQQTS
notes: Identified by LC-MS/MS in the LMBR1L co-IP; also called AMFR (GP78)
B2: ubiquitin associated domain containing 2 (UBAC2) (other, UniProt Q8NBM4 36-344, looked up)
chain: HCQKLFVYDLHAVKNDFQIWRLICGRIICLDLKDTFCSSLLIYNFRIFERRYGSRKFASFLLGSWVLSALFDFLLIEAMQYFFGITAASNLPSGFLAPVFALFVPFYCSIPRVQVAQILGPLSITNKTLIYILGLQLFTSGSYIWIVAISGLMSGLCYDSKMFQVHQVLCIPSWMAKFFSWTLEPIFSSSEPTSEARIGMGATLDIQRQQRMELLDRQLMFSQFAQGRRQRQQQGGMINWNRLFPPLRQRQNVNYQGGRQSEPAAPPLEVSEEQVARLMEMGFSRGDALEALRASNNDLNVATNFLLQH
notes: Identified by LC-MS/MS in the LMBR1L co-IP
B3: UBX domain-containing protein 8 (UBXD8, known as FAF2) (other, UniProt Q96CS3 2-445, looked up)
chain: AAPEERDLTQEQTEKLLQFQDLTGIESMDQCRHTLEQHNWNIEAAVQDRLNEQEGVPSVFNPPPSRPLQVNTADHRIYSYVVSRPQPRGLLGWGYYLIMLPFRFTYYTILDIFRFALRFIRPDPRSRVTDPVGDIVSFMHSFEEKYGRAHPVFYQGTYSQALNDAKRELRFLLVYLHGDDHQDSDEFCRNTLCAPEVISLINTRMLFWACSTNKPEGYRVSQALRENTYPFLAMIMLKDRRMTVVGRLEGLIQPDDLINQLTFIMDANQTYLVSERLEREERNQTQVLRQQQDEAYLASLRADQEKERKKREERERKRRKEEEVQQQKLAEERRRQNLQEEKERKLECLPPEPSPDDPESVKIIFKLPNDSRVERRFHFSQSLTVIHDFLFSLKESPEKFQIEANFPRRVLPCIPSEEWPNPPTLQEAGLSHTEVLFVQDLTDE
notes: Identified by LC-MS/MS in the LMBR1L co-IP; also called FAF2 (UBXDB8)

Biological target: T1, FLAG-tagged β-catenin
Experiment: not given
With B1 the “ubiquitination of β-catenin (anti-FLAG IP, anti-ubiquitin immunoblot)” value was “Co-expression of FLAG-tagged β-catenin and HA-tagged GP78 strongly promoted the ubiquitination of β-catenin”.

The molecules below were run against Flag tagged-human Lmbr1l (limb region 1 like, LMBR1L) (human) (UniProt Q6UX01) (assay: anti-FLAG co-IP from HEK293T lysate + LC-MS/MS, vs empty vector).
Work on AAAS (from UniProt F8VZ44 1-422) yielded a Ratio h-LMBR1L/h-vector of 81.9.
CKAP4 (from UniProt Q07065 1-602) gave a Ratio h-LMBR1L/h-vector of 79.5.
Molecule COPA (from UniProt P53621 1-1224) has a Ratio h-LMBR1L/h-vector of 110.
For EIF4G1 (from UniProt E7EUU4 1-1560), the Ratio h-LMBR1L/h-vector was 58.1.
FKBP8 (from UniProt Q14318 1-413) gave a Ratio h-LMBR1L/h-vector of 87.6.
“GANAB (from UniProt Q14697 29-944) (enzyme)” showed a Ratio h-LMBR1L/h-vector of 198.
With GAPVD1 (from UniProt Q14C86 1-1478) the Ratio h-LMBR1L/h-vector was 110.
“IARS (from UniProt J3KR24 1-1121) (enzyme)” showed a Ratio h-LMBR1L/h-vector of 106.
With IMMT the Ratio h-LMBR1L/h-vector was 100.
Molecule MAGED1 (from UniProt Q9Y5V3 1-778) has a Ratio h-LMBR1L/h-vector of 58.1.
Work on NCAPD2 (from UniProt Q15021 1-1401) yielded a Ratio h-LMBR1L/h-vector of 169.
With NDUFA2 (from UniProt O43678 2-99) the Ratio h-LMBR1L/h-vector was 107.
In the case of PDCD6IP (from UniProt Q8WUM4 2-868), the Ratio h-LMBR1L/h-vector is reported as 67.3.
Molecule PTPLAD1 has a Ratio h-LMBR1L/h-vector of 87.6.
RPN1 (from UniProt P04843 24-607) was tested, and the Ratio h-LMBR1L/h-vector was 118.
SRP68 (from UniProt Q9UHB9 1-627) gave a Ratio h-LMBR1L/h-vector of 198.
Molecule SRPRB (from UniProt Q9Y5M8 1-271) has a Ratio h-LMBR1L/h-vector of 231.
“STT3A (from UniProt P46977 1-705) (enzyme)” gave a Ratio h-LMBR1L/h-vector of 65.6.
Work on TMEM33 (from UniProt P57088 2-247) yielded a Ratio h-LMBR1L/h-vector of 87.
TMEM209 (from UniProt Q96SK2 1-561) showed a Ratio h-LMBR1L/h-vector of 97.8.
For “USP9X (from UniProt Q93008 1-2554) (enzyme)”, the Ratio h-LMBR1L/h-vector was 51.6.

Each molecule was assayed against T2, Flag tagged-human Lmbr1l (limb region 1 …) in the same assay as above.
Procedure: We sought to understand the immune function of LMBRL1 by identifying LMBR1L-interacting proteins using co-immunoprecipitation (co-IP) combined with mass spectrometry (MS) analysis. Among the 1,623 candidate proteins identified as putative LMBR1L interactors (Dataset S1), 25 proteins were >50-fold more abundant in the LMBR1L co-IP product relative to empty vector control (Table 1).
Co-immunoprecipitation and mass spectrometry were performed to identify Lmbr1l-interacting proteins as described below. Transfection was performed in HEK293T cells (ATCC) using Lipofectamine 2000 reagent (Life technologies) with plasmid encoding Flag tagged-human Lmbr1l or empty vector control. Forty-eight hours after transfection, cells were harvested in NP-40 lysis buffer for 45 min at 4° C. […] The proteins were eluted with SDS sample buffer and heated at 95° C. for 10 min. Lysates were loaded onto 12% (wt/vol) SDS-PAGE gel and run 1 cm into the separation gel. The gel was stained with Coomassie blue (Thermo Fisher) and whole stained lanes were subjected to mass spectrometry analysis (LCMS/MS) as described previously (33).
In the case of B2, the “Ratio h-LMBR1L/h-vector” value is reported as 297 ratio.
With B3 the “Ratio h-LMBR1L/h-vector” value was 71.2 ratio.
For B1, the “Ratio h-LMBR1L/h-vector” value was 51.7 ratio.
